Measurements reported in paper PMC9070667, “Molecular insights into RNA recognition and gene regulation by the TRIM-NHL protein Mei-P26”.

Legend:
Mei-P26 NHL RKR [1] = target: T1, Mei-P26 NHL RKR (Drosophila melanogaster (Oregon-R), UniProt M9PH32 908-1206, R1150A;K1172A;R1175A); assay: MST; MST: 20 mM Hepes/KOH pH 7.5, 100 mM NaCl, 5 mM MgCl2, 5 mM DTT, 0.0125% Tween 20, 25 C (Brat: 20 mM Tris 8.0, 150 mM NaCl, 1 mM MgCl2, 5 mM DTT, 0.0125% Tween 20). EMSA, 1:1 mix, 4 C: RNA in 10 mM Tris pH 7.4, 50 mM KCl, 1 mM EDTA, 1 mM DTT, 0.4 mg/ml yeast tRNA; protein in 20 mM Hepes pH 7.5, 5 mM DTT, 100 mM (wt) or 300 mM (mutants) NaCl, 5% glycerol; conditions: protein: recombinant; tags: GST removed by TEV; label: Cy5
T1 sequence: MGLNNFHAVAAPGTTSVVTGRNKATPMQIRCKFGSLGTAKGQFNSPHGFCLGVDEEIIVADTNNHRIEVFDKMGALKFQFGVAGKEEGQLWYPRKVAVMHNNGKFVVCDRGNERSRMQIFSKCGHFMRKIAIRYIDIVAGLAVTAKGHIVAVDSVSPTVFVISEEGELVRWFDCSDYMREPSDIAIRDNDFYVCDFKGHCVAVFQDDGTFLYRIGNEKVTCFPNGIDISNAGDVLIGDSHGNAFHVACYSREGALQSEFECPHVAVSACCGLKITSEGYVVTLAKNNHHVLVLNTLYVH

Mei-P26 NHL wt [2] = target: T2, Mei-P26 NHL wt (Drosophila melanogaster (Oregon-R), UniProt M9PH32 908-1206); assay: as above; conditions: protein: recombinant, tags: GST removed by TEV
T2 sequence: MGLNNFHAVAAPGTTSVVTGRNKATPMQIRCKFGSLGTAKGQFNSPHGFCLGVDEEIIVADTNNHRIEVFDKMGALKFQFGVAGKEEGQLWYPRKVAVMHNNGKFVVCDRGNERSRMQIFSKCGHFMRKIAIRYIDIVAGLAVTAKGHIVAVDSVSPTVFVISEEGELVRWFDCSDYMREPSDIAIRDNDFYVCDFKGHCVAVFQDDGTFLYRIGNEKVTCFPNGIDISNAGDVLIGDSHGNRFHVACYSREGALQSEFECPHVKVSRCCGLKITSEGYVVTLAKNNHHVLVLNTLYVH

Brat NHL = target: T3, Brat NHL (Drosophila melanogaster, UniProt Q8MQJ9 756-1037); assay: as above; conditions: protein: recombinant; tags: His6-ubiquitin fusion (pHUE); label: Cy5
T3 sequence: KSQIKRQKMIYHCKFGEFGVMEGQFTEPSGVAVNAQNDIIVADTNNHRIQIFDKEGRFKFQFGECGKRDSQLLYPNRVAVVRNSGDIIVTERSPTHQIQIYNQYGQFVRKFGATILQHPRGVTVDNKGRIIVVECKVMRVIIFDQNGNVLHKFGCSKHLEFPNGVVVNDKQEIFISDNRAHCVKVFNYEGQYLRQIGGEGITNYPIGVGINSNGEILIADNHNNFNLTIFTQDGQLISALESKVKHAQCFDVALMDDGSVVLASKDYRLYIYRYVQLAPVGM

Mei-P26 NHL RKR [3] = target: T1, Mei-P26 NHL RKR; assay: EMSA; MST: 20 mM Hepes/KOH pH 7.5, 100 mM NaCl, 5 mM MgCl2, 5 mM DTT, 0.0125% Tween 20, 25 C (Brat: 20 mM Tris 8.0, 150 mM NaCl, 1 mM MgCl2, 5 mM DTT, 0.0125% Tween 20). EMSA, 1:1 mix, 4 C: RNA in 10 mM Tris pH 7.4, 50 mM KCl, 1 mM EDTA, 1 mM DTT, 0.4 mg/ml yeast tRNA; protein in 20 mM Hepes pH 7.5, 5 mM DTT, 100 mM (wt) or 300 mM (mutants) NaCl, 5% glycerol; conditions: protein: recombinant; tags: GST removed by TEV; label: 32P
Mei-P26 NHL wt [4] = target: T2, Mei-P26 NHL wt; assay: as above; conditions: protein: recombinant, tags: GST removed by TEV
Mei-P26 NHL R1175A = target: T4, Mei-P26 NHL R1175A (Drosophila melanogaster (Oregon-R), UniProt M9PH32 908-1206, R1175A); assay: MST; minor influence of the mutation; MST: 20 mM Hepes/KOH pH 7.5, 100 mM NaCl, 5 mM MgCl2, 5 mM DTT, 0.0125% Tween 20, 25 C (Brat: 20 mM Tris 8.0, 150 mM NaCl, 1 mM MgCl2, 5 mM DTT, 0.0125% Tween 20). EMSA, 1:1 mix, 4 C: RNA in 10 mM Tris pH 7.4, 50 mM KCl, 1 mM EDTA, 1 mM DTT, 0.4 mg/ml yeast tRNA; protein in 20 mM Hepes pH 7.5, 5 mM DTT, 100 mM (wt) or 300 mM (mutants) NaCl, 5% glycerol; conditions: protein: recombinant; tags: GST removed by TEV; label: Cy5 (MST); 32P (EMSA)
T4 sequence: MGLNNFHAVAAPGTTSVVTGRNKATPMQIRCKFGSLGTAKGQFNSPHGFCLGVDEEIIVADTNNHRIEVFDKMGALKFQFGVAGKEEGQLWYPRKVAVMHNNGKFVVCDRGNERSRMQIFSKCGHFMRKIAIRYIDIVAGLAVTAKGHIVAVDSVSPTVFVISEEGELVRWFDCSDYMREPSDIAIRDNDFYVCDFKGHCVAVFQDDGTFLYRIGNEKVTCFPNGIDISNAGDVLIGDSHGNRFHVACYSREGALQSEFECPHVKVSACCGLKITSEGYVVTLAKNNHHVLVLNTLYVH

Binder: UUUUACA (ssRNA) [SEQ3]
- binding result (Mei-P26 NHL RKR [1]): no binding
- Kd (Mei-P26 NHL wt [2]; label: Cy5): 1700 nM

Binder: UUGUUAA (ssRNA) [BRAT1]
- binding result (Brat NHL): binds

Binder: AGUAAUUUUUUCUAUUAAAGU (ssRNA) [Hrb27C]
- binding result (Mei-P26 NHL RKR [3]): no binding
- binding result (Mei-P26 NHL wt [4]; label: 32P): binds

Binder: UUUUUUUUU (ssRNA) [U9]
- binding result (Mei-P26 NHL R1175A): binds
- binding result (Mei-P26 NHL wt [4]; label: Cy5 (MST), 32P (EMSA)): binds

Binder: UUUUUAA (ssRNA) [BRATmut]
- binding result (Mei-P26 NHL wt [2]; label: Cy5): binds

Binder: AUCCUUUUUAAAACUCC (ssRNA) [LanA]
- binding result (Mei-P26 NHL RKR [3]): no binding
- binding result (Mei-P26 NHL wt [4]; label: 32P): binds

Binder: UUUUUUU (ssRNA) [U7 (SEQ1)]
- Kd (Mei-P26 NHL wt [2]; label: Cy5): 1800 ± 200 nM

Binder: CCCUUUUUUUAUACACAA (ssRNA) [lost]
- binding result (Mei-P26 NHL RKR [3]): no binding
- binding result (Mei-P26 NHL wt [4]; label: 32P): binds

Binder: UUUUACAA (ssRNA) [SEQ44U]
- binding result (Mei-P26 NHL wt [2]; label: Cy5): binds

Binder: AUUUACA (ssRNA) [SEQ2]
- binding result (Mei-P26 NHL wt [2]; label: Cy5): binds

Binder: GGUCUUUUUACAAAAG (ssRNA) [Mlc-c]
- binding result (Mei-P26 NHL RKR [3]): no binding
- binding result (Mei-P26 NHL wt [4]; label: 32P): binds

Binder: TTTTACA (ssDNA) [DNA]
- binding result (Mei-P26 NHL wt [2]; label: Cy5 (MST), 32P (EMSA)): no binding

Binder: GCCAUUUUUUAUCUGCCA (ssRNA) [Col4a1]
- binding result (Mei-P26 NHL RKR [3]): no binding
- binding result (Mei-P26 NHL wt [4]; label: 32P): binds

Binder: GGAGUCCAACUCC (structured_RNA) [dsRNA hairpin (Lin41 SEQ)]
- binding result (Mei-P26 NHL wt [2]; label: Cy5 (MST), 32P (EMSA), hairpin): no binding

Binder: UUUUUAC (ssRNA) [SEQ5]
- binding result (Mei-P26 NHL wt [2]; label: Cy5): binds
